Results: article PMC6167435, “Genetic Removal of the CH1 Exon Enables the Production of Heavy Chain-Only IgG in Mice” (Frontiers in Immunology, 2018)
Substitutions are numbered along the chain they refer to. Blank lines part the entries; values can stand above or below the molecule they belong to.

Key:
[1] = molecular target: IgG1 heavy chain of HG1 mice (γ1 CH1 exon deleted) (mouse (endogenous in serum of HG1 mice)); assay: SDS-PAGE under non-reducing conditions with Western blotting; serum of HG1 and WT mice; detected with HRP-conjugated goat anti-mouse IgG1 heavy chain; association judged from molecular weights (covalent association)
ovalbumin = ovalbumin (Gallus gallus (chicken), , UniProt P01012)
Sequence of ovalbumin (P01012 whole entry): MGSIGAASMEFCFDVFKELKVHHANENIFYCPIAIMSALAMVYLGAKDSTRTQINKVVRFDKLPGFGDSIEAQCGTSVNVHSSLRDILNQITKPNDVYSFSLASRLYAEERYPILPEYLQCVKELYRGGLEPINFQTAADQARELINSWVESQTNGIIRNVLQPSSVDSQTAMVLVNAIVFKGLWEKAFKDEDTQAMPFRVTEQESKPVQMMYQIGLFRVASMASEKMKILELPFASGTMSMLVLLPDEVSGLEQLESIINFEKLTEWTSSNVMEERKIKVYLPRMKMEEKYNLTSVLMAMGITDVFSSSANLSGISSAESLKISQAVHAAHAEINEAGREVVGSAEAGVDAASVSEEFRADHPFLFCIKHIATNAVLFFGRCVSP

Molecule: IgG1 heavy chain of HG1 mice (γ1 CH1 exon deleted)
- stoichiometry N [1]: 2

B2: 3A-6 (VHH)
VHH: EVKLVESGGDLVKPGGSLKLSCVASGFTFSSYGMSWIRQTPDKRLEWVATISSGGSYTYYPDSVKGRFTISRDNAKNTLYLQMSSLKSEDTAMYYCARRGRYDDTMDYWGQGTTVTVSS
- binding result (ovalbumin): binds

B3: 3A-3 (VHH)
VHH: B2 VHH with V23A, K76E, T114S, V115L
- binding result (ovalbumin): binds

B4: 3A-31 (VHH)
VHH: B2 VHH with V23A, I37V, N77S, R101K, V115L
- binding result (ovalbumin): binds

B5: 3A-2 (VHH)
VHH: B2 VHH with V23A, V115L
- binding result (ovalbumin): binds

B7: 3A-20 (VHH)
VHH: B2 VHH with K3Q, V5E, V23A
- binding result (ovalbumin): binds

Next, values leading:

- binding result (ovalbumin): binds
B1: 3A-1 (VHH)
VHH: B2 VHH with V23A

- binding result (ovalbumin): binds
B6: 3A-9 (VHH)
VHH: B2 VHH with V23A, S84G, T114S, V115L
